Test results taken from US20230357446A1.

Target: CD22 on WSU-DLCL2 cells (WSU-DLCL2/CD22^WT; absent from the CRISPR-edited WSU-DLCL2/CD22^KO line) (human) (UniProt P20273)
Assay: cell-based or functional assay

Question: For REGN5837 (bispecific antibody), which % CD22^KO Survival; ratio CD22^KO:CD22^WT 20:80; 5 pM R1979 +0.46 nM R5837 is on record?
Answer: 29.9%

Question: And the % CD22^KO Survival; ratio CD22^KO:CD22^WT 20:80; 5 pM R1979 +2.8 nM R5837?
Answer: 25.2%

Question: What about the % CD22^KO Survival; ratio CD22^KO:CD22^WT 20:80; 5 pM R1979 +16.7 nM R5837 of the same substance?
Answer: 20.9%

Question: What about the % CD22^KO Survival; ratio CD22^KO:CD22^WT 40:60; 5 pM R1979 +0.46 nM R5837 of the same substance?
Answer: 31.9%

Question: What about the % CD22^KO Survival; ratio CD22^KO:CD22^WT 40:60; 5 pM R1979 +2.8 nM R5837 of the same substance?
Answer: 24.1%

Question: What about the % CD22^KO Survival; ratio CD22^KO:CD22^WT 40:60; 5 pM R1979 +16.7 nM R5837 of the same substance?
Answer: 19.9%

Question: What about the % CD22^KO Survival; ratio CD22^KO:CD22^WT 60:40; 5 pM R1979 +0.46 nM R5837 of the same substance?
Answer: 33.9%

Question: And the % CD22^KO Survival; ratio CD22^KO:CD22^WT 60:40; 5 pM R1979 +2.8 nM R5837?
Answer: 28.2%

Question: And the % CD22^KO Survival; ratio CD22^KO:CD22^WT 60:40; 5 pM R1979 +16.7 nM R5837?
Answer: 19.1%

Question: What about the % CD22^KO Survival; ratio CD22^KO:CD22^WT 80:20; 5 pM R1979 +0.46 nM R5837 of the same substance?
Answer: 37.2%

Question: And the % CD22^KO Survival; ratio CD22^KO:CD22^WT 80:20; 5 pM R1979 +2.8 nM R5837?
Answer: 28.8%

Question: And the % CD22^KO Survival; ratio CD22^KO:CD22^WT 80:20; 5 pM R1979 +16.7 nM R5837?
Answer: 26.9%

Question: What about the % CD22^KO Survival; ratio CD22^KO:CD22^WT 100:0; 5 pM R1979 +0.46 nM R5837 of the same substance?
Answer: 60.1%

Question: And the % CD22^KO Survival; ratio CD22^KO:CD22^WT 100:0; 5 pM R1979 +2.8 nM R5837?
Answer: 56%

Question: What about the % CD22^KO Survival; ratio CD22^KO:CD22^WT 100:0; 5 pM R1979 +16.7 nM R5837 of the same substance?
Answer: 45.4%

Question: What about the % CD22^WT Survival; ratio CD22^KO:CD22^WT 0:100; 5 pM R1979 +0.46 nM R5837 of the same substance?
Answer: 28.5%

Question: And the % CD22^WT Survival; ratio CD22^KO:CD22^WT 0:100; 5 pM R1979 +2.8 nM R5837?
Answer: 22.4%

Question: What about the % CD22^WT Survival; ratio CD22^KO:CD22^WT 0:100; 5 pM R1979 +16.7 nM R5837 of the same substance?
Answer: 12.6%

Question: What about the % CD22^WT Survival; ratio CD22^KO:CD22^WT 20:80; 5 pM R1979 +0.46 nM R5837 of the same substance?
Answer: 19.3%

Question: And the % CD22^WT Survival; ratio CD22^KO:CD22^WT 20:80; 5 pM R1979 +2.8 nM R5837?
Answer: 16.4%

Question: What about the % CD22^WT Survival; ratio CD22^KO:CD22^WT 20:80; 5 pM R1979 +16.7 nM R5837 of the same substance?
Answer: 11.2%

Question: And the % CD22^WT Survival; ratio CD22^KO:CD22^WT 40:60; 5 pM R1979 +0.46 nM R5837?
Answer: 20.1%

Question: And the % CD22^WT Survival; ratio CD22^KO:CD22^WT 40:60; 5 pM R1979 +2.8 nM R5837?
Answer: 12.8%

Question: And the % CD22^WT Survival; ratio CD22^KO:CD22^WT 40:60; 5 pM R1979 +16.7 nM R5837?
Answer: 9.45%

Question: And the % CD22^WT Survival; ratio CD22^KO:CD22^WT 60:40; 5 pM R1979 +0.46 nM R5837?
Answer: 19.1%

Question: What about the % CD22^WT Survival; ratio CD22^KO:CD22^WT 60:40; 5 pM R1979 +2.8 nM R5837 of the same substance?
Answer: 12.4%

Question: What about the % CD22^WT Survival; ratio CD22^KO:CD22^WT 60:40; 5 pM R1979 +16.7 nM R5837 of the same substance?
Answer: 8.6%

Question: And the % CD22^WT Survival; ratio CD22^KO:CD22^WT 80:20; 5 pM R1979 +0.46 nM R5837?
Answer: 20.6%

Question: And the % CD22^WT Survival; ratio CD22^KO:CD22^WT 80:20; 5 pM R1979 +2.8 nM R5837?
Answer: 13.1%

Question: What about the % CD22^WT Survival; ratio CD22^KO:CD22^WT 80:20; 5 pM R1979 +16.7 nM R5837 of the same substance?
Answer: 7.95%

Question: What about the CD4+ T cell activation (MFI of CD25); ratio CD22^KO:CD22^WT 0:100; 5 pM R1979 +0.46 nM R5837 of the same substance?
Answer: 13400 MFI

Question: What about the CD4+ T cell activation (MFI of CD25); ratio CD22^KO:CD22^WT 0:100; 5 pM R1979 +2.8 nM R5837 of the same substance?
Answer: 14800 MFI

Question: And the CD4+ T cell activation (MFI of CD25); ratio CD22^KO:CD22^WT 0:100; 5 pM R1979 +16.7 nM R5837?
Answer: 17700 MFI

Question: And the CD4+ T cell activation (MFI of CD25); ratio CD22^KO:CD22^WT 20:80; 5 pM R1979 +0.46 nM R5837?
Answer: 11200 MFI

Question: And the CD4+ T cell activation (MFI of CD25); ratio CD22^KO:CD22^WT 20:80; 5 pM R1979 +2.8 nM R5837?
Answer: 14400 MFI

Question: What about the CD4+ T cell activation (MFI of CD25); ratio CD22^KO:CD22^WT 20:80; 5 pM R1979 +16.7 nM R5837 of the same substance?
Answer: 15300 MFI

Question: And the CD4+ T cell activation (MFI of CD25); ratio CD22^KO:CD22^WT 40:60; 5 pM R1979 +0.46 nM R5837?
Answer: 11800 MFI

Question: And the CD4+ T cell activation (MFI of CD25); ratio CD22^KO:CD22^WT 40:60; 5 pM R1979 +2.8 nM R5837?
Answer: 13200 MFI

Question: What about the CD4+ T cell activation (MFI of CD25); ratio CD22^KO:CD22^WT 40:60; 5 pM R1979 +16.7 nM R5837 of the same substance?
Answer: 13600 MFI

Question: What about the CD4+ T cell activation (MFI of CD25); ratio CD22^KO:CD22^WT 60:40; 5 pM R1979 +0.46 nM R5837 of the same substance?
Answer: 8520 MFI

Question: What about the CD4+ T cell activation (MFI of CD25); ratio CD22^KO:CD22^WT 60:40; 5 pM R1979 +2.8 nM R5837 of the same substance?
Answer: 10900 MFI

Question: And the CD4+ T cell activation (MFI of CD25); ratio CD22^KO:CD22^WT 60:40; 5 pM R1979 +16.7 nM R5837?
Answer: 12000 MFI

Question: And the CD4+ T cell activation (MFI of CD25); ratio CD22^KO:CD22^WT 80:20; 5 pM R1979 +0.46 nM R5837?
Answer: 7520 MFI

Question: What about the CD4+ T cell activation (MFI of CD25); ratio CD22^KO:CD22^WT 80:20; 5 pM R1979 +2.8 nM R5837 of the same substance?
Answer: 8280 MFI

Question: And the CD4+ T cell activation (MFI of CD25); ratio CD22^KO:CD22^WT 80:20; 5 pM R1979 +16.7 nM R5837?
Answer: 9850 MFI

Question: What about the CD4+ T cell activation (MFI of CD25); ratio CD22^KO:CD22^WT 100:0; 5 pM R1979 +0.46 nM R5837 of the same substance?
Answer: 4280 MFI

Question: What about the CD4+ T cell activation (MFI of CD25); ratio CD22^KO:CD22^WT 100:0; 5 pM R1979 +2.8 nM R5837 of the same substance?
Answer: 4060 MFI

Question: And the CD4+ T cell activation (MFI of CD25); ratio CD22^KO:CD22^WT 100:0; 5 pM R1979 +16.7 nM R5837?
Answer: 3150 MFI

Question: And the CD8+ T cell activation (MFI of CD25); ratio CD22^KO:CD22^WT 0:100; 5 pM R1979 +0.46 nM R5837?
Answer: 7920 MFI

Question: And the CD8+ T cell activation (MFI of CD25); ratio CD22^KO:CD22^WT 0:100; 5 pM R1979 +2.8 nM R5837?
Answer: 9030 MFI

Question: And the CD8+ T cell activation (MFI of CD25); ratio CD22^KO:CD22^WT 0:100; 5 pM R1979 +16.7 nM R5837?
Answer: 9880 MFI

Question: And the CD8+ T cell activation (MFI of CD25); ratio CD22^KO:CD22^WT 20:80; 5 pM R1979 +0.46 nM R5837?
Answer: 6310 MFI

Question: What about the CD8+ T cell activation (MFI of CD25); ratio CD22^KO:CD22^WT 20:80; 5 pM R1979 +2.8 nM R5837 of the same substance?
Answer: 8410 MFI

Question: And the CD8+ T cell activation (MFI of CD25); ratio CD22^KO:CD22^WT 20:80; 5 pM R1979 +16.7 nM R5837?
Answer: 8660 MFI

Question: What about the CD8+ T cell activation (MFI of CD25); ratio CD22^KO:CD22^WT 40:60; 5 pM R1979 +0.46 nM R5837 of the same substance?
Answer: 6140 MFI

Question: What about the CD8+ T cell activation (MFI of CD25); ratio CD22^KO:CD22^WT 40:60; 5 pM R1979 +2.8 nM R5837 of the same substance?
Answer: 7920 MFI

Question: And the CD8+ T cell activation (MFI of CD25); ratio CD22^KO:CD22^WT 40:60; 5 pM R1979 +16.7 nM R5837?
Answer: 7880 MFI

Question: What about the CD8+ T cell activation (MFI of CD25); ratio CD22^KO:CD22^WT 60:40; 5 pM R1979 +0.46 nM R5837 of the same substance?
Answer: 4800 MFI

Question: And the CD8+ T cell activation (MFI of CD25); ratio CD22^KO:CD22^WT 60:40; 5 pM R1979 +2.8 nM R5837?
Answer: 6620 MFI

Question: What about the CD8+ T cell activation (MFI of CD25); ratio CD22^KO:CD22^WT 60:40; 5 pM R1979 +16.7 nM R5837 of the same substance?
Answer: 6670 MFI

Question: And the CD8+ T cell activation (MFI of CD25); ratio CD22^KO:CD22^WT 80:20; 5 pM R1979 +0.46 nM R5837?
Answer: 4250 MFI

Question: And the CD8+ T cell activation (MFI of CD25); ratio CD22^KO:CD22^WT 80:20; 5 pM R1979 +2.8 nM R5837?
Answer: 4890 MFI

Question: And the CD8+ T cell activation (MFI of CD25); ratio CD22^KO:CD22^WT 80:20; 5 pM R1979 +16.7 nM R5837?
Answer: 4970 MFI

Question: And the CD8+ T cell activation (MFI of CD25); ratio CD22^KO:CD22^WT 100:0; 5 pM R1979 +0.46 nM R5837?
Answer: 3000 MFI

Question: What about the CD8+ T cell activation (MFI of CD25); ratio CD22^KO:CD22^WT 100:0; 5 pM R1979 +2.8 nM R5837 of the same substance?
Answer: 2510 MFI

Question: And the CD8+ T cell activation (MFI of CD25); ratio CD22^KO:CD22^WT 100:0; 5 pM R1979 +16.7 nM R5837?
Answer: 2160 MFI
